Experiment [1] concerns the target B7-1 on the surface of mouse cells (WEHI 231, undifferentiated ES cells) (mouse) (UniProt Q00609). Kind of experiment: flow cytometry, titration on WEHI 231 cells, which carry both B7-1 and B7-2. A general note: A flow cytometer gives signals particle by particle.
Experiment [2] deals with T1, B7-2 on the surface of WEHI 231 cells (mouse) (UniProt P42082).
T1 sequence (looked up): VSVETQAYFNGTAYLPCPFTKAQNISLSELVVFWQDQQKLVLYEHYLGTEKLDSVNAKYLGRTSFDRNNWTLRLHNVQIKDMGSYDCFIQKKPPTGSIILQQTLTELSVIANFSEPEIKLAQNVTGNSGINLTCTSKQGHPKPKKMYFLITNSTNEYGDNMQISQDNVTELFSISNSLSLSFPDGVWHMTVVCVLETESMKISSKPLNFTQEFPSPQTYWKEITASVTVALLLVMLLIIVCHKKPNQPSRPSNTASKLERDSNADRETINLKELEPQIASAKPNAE
The experiment is described as above.

Experiment [3] deals with ICOS-ligand (GL50) on the surface of mouse cells (WEHI 231, undifferentiated ES cells, splenocytes) (mouse) (UniProt Q9JHJ8). Briefly: flow cytometry, titration on WEHI 231 cells.
Experiment [4] shares this target. Kind of experiment: flow cytometry, indirect staining of undifferentiated CCE ES cells.
For experiment [5] the target is unchanged. Briefly: two-colour flow cytometry, Balb/C splenocytes, cells stained by anti-CD3.
For experiment [6] the target is unchanged. Briefly: two-colour flow cytometry, Balb/C splenocytes, cells stained by anti-CD4.
For experiment [7] the target is unchanged. Kind of experiment: two-colour flow cytometry, Balb/C splenocytes, cells stained by anti CD40.
Experiment [8] has the same target. Kind of experiment: two-colour flow cytometry, Balb/C splenocytes, cells stained by anti CD69.
The target is the same in experiment [9]. Briefly: two-colour flow cytometry, Balb/C splenocytes, cells stained by anti-CD19.
Experiment [10] has the same target. Briefly: two-colour flow cytometry, Balb/C splenocytes, cells stained by anti-CD24.
For experiment [11] the target is unchanged. Briefly: two-colour flow cytometry, Balb/C splenocytes, cells stained by anti-CD8a.
Experiment [12] shares this target. Briefly: two-colour flow cytometry, RAG1-/- splenocytes, cells stained by anti-CD4.
The target is the same in experiment [13]. Briefly: two-colour flow cytometry, Balb/C splenocytes, cells stained by anti-CD11B.
Experiment [14] shares this target. Kind of experiment: two-colour flow cytometry, Balb/C splenocytes, cells stained by anti-CD11C.
Experiment [15] has the same target. Kind of experiment: two-colour flow cytometry, RAG1-/- splenocytes, cells stained by anti CD69.
For experiment [16] the target is unchanged. Kind of experiment: two-colour flow cytometry, RAG1-/- splenocytes, cells stained by anti-CD24.
For experiment [17] the target is unchanged. Briefly: two-colour flow cytometry, Balb/C splenocytes, cells stained by anti-pan NK.
Experiment [18] has the same target. Briefly: two-colour flow cytometry, RAG1-/- splenocytes, cells stained by anti-CD11B.
For experiment [19] the target is unchanged. Kind of experiment: two-colour flow cytometry, RAG1-/- splenocytes, cells stained by anti-CD11C.
Experiment [20] has the same target. Briefly: two-colour flow cytometry, RAG1-/- splenocytes, cells stained by anti-pan NK.
For experiment [21] the target is unchanged. Kind of experiment: two-colour flow cytometry, Balb/C splenocytes, cells stained by anti class II.
Experiment [22] shares this target. Kind of experiment: two-colour flow cytometry, RAG1-/- splenocytes, cells stained by anti class II.
Experiment [23] has the same target. Kind of experiment: two-colour flow cytometry, Balb/C splenocytes, cells stained by anti-CD45R/B220.
Experiment [24] has the same target. Kind of experiment: two-colour flow cytometry, RAG1-/- splenocytes, cells stained by anti-CD45R/B220.

UniProt Q9JHJ8, sequence (Q9JHJ8 44-322): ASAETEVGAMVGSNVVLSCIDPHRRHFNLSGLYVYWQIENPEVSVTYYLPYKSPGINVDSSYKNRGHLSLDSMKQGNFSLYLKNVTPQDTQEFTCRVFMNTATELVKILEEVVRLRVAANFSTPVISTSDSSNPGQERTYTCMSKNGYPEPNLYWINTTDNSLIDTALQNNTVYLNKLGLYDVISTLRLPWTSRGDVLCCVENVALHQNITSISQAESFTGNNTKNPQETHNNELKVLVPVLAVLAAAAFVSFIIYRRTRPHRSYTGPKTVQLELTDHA
UniProt Q00609, sequence (Q00609 38-306): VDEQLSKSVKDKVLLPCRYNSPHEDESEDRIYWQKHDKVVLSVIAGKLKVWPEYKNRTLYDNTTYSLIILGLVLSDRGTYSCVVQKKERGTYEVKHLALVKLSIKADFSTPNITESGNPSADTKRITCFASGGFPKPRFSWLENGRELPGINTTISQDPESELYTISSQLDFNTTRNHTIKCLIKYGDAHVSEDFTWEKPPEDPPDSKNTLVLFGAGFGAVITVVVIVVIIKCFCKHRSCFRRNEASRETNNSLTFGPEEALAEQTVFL

In experiment [1], “mCTLA4-mIgG2am fusion protein (from UniProt P09793 36-161) (Fc fusion)” registered a concentration at which staining was clearly detectable of 8 ng/mL and a fold binding affinity against mICOS-mIgG2am binding to GL50 on WEHI cells of more than 100 fold. Moreover, in experiment [2], the concentration at which staining was clearly detectable worked out at 8 ng/mL and the fold binding affinity against mICOS-mIgG2am binding to GL50 on WEHI cells is more than 100 fold.

B1: mICOS-mIgG2am fusion protein (Fc fusion)
chain: EINGSADHRMFSFHNGGVQISCKYPETVQQLKMRLFREREVLCELTKTKGSGNAVSIKNPMLCLYHLSNNSVSFFLNNPDSSQGSYYFCSLSIFDPPPFQERNLSGGYLHIYESQLCCQLKLEPRGPTIKPCPPCKCPAPNLEGGPSVFIFPPKIKDVLMISLSPIVTCVVVDVSEDDPDVQISWFVNNVEVHTAQTQTHREDYNSTLRVVSALPIQHQDWMSGKAFACAVNNKDLPAPIERTISKPKGSVRAPQVYVLPPPEEEMTKKQVTLTCMVTDFMPEDIYVEWTNNGKTELNYKNTEPVLDSDGSYFMYSKLRVEKKNWVERNSYSCSVVHEGLHNHHTTKSFSRTPGK
For B1, the concentration from which staining was minimally detectable in experiment [3] came out at 1 µg/mL. Besides, the fluorescence shift over background in [4] came out at 0.5 log. For the same molecule, the % ICOS-lg positive in experiment [5] was 10%; in experiment [6], 8%; in [7], 97%; in experiment [8], 25%; in experiment [9], 97%; in experiment [10], 94%. Also, the % ICOS-lg positive in [11] stood at 10%; in [12] it was 45%; in experiment [13] it was 26%; in [14], 43%; in experiment [15], 5%; in [16], 28%. Besides, the % ICOS-lg positive in experiment [17] stood at 20%; in [18] it was 31%; in [19], 55%; in experiment [20], 3%; in experiment [21] it was 95%; in experiment [22], 3%. Also, the % ICOS-lg positive is 97% in experiment [23] and 5% in [24].

The values are drawn from EP1900816A2.
